Drawing on US20220332804A1 (CSL INNOVATION, published 2022), this text covers Fold diff for 1 molecule.

What all share (assay): SPR, KD relative to WT C2;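 note: biacore SPR at 37 °C, anti-C2 mAbs captured via immobilised goat anti-human IgG, C2 alanine or serine surface mutants as analytes, 1:1 model fitted, double-referenced sensograms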
Background: SPR reads the build-up and loss of mass on a sensor chip optically.

For one test, the target named is T1, human C2 G466A (human, UniProt P06681 21-752).
T1 sequence: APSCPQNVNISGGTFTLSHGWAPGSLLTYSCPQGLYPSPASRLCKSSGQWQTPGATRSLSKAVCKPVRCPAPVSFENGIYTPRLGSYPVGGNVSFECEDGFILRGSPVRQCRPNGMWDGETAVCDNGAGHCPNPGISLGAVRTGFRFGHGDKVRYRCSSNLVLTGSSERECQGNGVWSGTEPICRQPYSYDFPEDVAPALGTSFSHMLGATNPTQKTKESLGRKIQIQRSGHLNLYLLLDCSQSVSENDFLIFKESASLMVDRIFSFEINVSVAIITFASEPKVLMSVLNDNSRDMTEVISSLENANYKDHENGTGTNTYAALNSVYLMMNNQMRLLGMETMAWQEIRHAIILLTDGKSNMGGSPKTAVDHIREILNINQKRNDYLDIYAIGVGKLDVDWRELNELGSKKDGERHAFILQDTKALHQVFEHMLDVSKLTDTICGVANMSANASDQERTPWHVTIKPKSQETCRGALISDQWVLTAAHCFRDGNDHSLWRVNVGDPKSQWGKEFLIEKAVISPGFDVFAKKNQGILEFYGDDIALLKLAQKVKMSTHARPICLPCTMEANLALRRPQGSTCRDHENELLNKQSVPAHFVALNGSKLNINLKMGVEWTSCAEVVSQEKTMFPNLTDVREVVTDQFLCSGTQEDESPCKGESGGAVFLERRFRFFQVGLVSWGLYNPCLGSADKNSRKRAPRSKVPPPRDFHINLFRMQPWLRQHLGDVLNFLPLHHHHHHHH

The target of another test is T2, human C2 K711A (human, UniProt P06681 21-752).
T2 sequence: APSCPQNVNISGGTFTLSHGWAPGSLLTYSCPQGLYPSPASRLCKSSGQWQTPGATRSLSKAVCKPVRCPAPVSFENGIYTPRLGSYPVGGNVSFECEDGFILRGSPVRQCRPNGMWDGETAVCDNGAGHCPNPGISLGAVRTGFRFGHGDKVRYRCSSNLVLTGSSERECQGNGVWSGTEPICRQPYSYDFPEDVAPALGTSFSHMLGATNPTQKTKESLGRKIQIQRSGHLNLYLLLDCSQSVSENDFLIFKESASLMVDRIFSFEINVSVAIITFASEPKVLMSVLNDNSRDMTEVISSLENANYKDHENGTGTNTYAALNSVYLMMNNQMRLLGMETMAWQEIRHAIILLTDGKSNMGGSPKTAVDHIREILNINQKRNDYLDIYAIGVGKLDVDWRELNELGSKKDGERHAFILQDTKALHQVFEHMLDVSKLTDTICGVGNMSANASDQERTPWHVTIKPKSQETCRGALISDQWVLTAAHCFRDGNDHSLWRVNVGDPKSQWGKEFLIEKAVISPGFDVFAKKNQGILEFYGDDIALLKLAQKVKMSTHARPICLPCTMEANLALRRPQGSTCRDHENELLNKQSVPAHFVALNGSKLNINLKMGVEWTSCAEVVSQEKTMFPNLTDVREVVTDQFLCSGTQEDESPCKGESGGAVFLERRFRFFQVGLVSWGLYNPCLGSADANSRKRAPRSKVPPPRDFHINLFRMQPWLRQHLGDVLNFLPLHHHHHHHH

For a further test, the target named is T3, human C2 L706A (human, UniProt P06681 21-752).
T3 sequence: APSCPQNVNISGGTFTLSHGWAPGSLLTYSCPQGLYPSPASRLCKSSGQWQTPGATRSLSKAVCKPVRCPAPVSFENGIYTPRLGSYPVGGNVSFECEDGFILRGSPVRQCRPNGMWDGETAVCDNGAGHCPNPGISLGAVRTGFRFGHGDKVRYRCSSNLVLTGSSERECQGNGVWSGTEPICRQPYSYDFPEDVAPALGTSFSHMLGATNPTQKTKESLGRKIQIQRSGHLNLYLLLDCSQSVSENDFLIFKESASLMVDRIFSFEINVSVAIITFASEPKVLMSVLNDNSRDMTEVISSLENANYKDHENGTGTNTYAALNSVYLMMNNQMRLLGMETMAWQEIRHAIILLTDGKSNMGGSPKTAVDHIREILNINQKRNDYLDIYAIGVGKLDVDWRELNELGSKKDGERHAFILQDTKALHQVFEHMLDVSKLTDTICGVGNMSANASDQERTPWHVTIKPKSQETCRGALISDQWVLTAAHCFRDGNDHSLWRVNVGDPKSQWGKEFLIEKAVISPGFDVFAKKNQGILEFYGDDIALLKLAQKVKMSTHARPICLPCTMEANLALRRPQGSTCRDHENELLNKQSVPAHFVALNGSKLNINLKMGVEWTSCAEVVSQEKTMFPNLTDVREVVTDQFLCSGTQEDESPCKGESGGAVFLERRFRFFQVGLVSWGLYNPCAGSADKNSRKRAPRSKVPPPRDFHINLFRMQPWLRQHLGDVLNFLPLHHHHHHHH

The target in a further test is T4, human C2 A717S (human, UniProt P06681 21-752).
T4 sequence: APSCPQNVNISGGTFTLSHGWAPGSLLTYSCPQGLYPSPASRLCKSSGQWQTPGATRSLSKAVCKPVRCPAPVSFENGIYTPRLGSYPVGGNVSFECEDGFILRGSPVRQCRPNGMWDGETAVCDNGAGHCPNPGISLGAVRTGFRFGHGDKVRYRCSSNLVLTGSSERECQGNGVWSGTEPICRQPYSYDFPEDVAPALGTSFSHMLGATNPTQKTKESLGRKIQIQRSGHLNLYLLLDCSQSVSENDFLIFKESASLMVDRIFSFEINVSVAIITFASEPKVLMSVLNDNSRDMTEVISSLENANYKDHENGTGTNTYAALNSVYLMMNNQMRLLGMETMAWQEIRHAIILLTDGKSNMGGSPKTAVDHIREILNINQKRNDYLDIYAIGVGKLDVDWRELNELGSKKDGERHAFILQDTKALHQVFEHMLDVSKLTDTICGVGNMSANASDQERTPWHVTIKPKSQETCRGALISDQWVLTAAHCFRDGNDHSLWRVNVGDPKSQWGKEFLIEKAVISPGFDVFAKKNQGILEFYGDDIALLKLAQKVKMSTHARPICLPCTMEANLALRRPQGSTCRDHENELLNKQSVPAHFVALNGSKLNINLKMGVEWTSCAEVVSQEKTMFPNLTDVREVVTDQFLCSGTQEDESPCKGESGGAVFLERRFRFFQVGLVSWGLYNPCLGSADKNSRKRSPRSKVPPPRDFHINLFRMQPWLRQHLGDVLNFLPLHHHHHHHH

B1: RF16-226 (antibody, human IgG4 S228P, lambda)
heavy: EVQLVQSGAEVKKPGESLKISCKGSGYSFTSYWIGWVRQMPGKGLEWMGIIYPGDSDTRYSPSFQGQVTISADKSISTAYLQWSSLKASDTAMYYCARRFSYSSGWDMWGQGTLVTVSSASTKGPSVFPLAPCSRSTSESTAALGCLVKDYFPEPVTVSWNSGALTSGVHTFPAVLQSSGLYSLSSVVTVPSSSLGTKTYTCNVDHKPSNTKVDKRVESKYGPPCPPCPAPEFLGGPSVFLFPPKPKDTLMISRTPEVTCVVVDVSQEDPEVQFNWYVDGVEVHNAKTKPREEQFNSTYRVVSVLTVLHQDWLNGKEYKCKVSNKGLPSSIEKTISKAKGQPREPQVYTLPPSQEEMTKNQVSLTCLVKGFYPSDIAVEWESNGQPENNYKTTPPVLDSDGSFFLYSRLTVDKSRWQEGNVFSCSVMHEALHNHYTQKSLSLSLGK
light: SYELTQPPSVSVSPGQTARITCSGDALTSKYVAWYQQKSGLAPLLVIYEDTRRPSGIPAKFSGSSSGSVATLTISGAHGDDEADYYCYSTDASGHQRVFGGGTKLTVLSQPKAAPSVTLFPPSSEELQANKATLVCLISDFYPGAVTVAWKADGSPVKAGVETTKPSKQSNNKYAASSYLSLTPEQWKSHRSYSCQVTHEGSTVEKTVAPTECS
notes: pH-dependent anti-C2 antibody from a phage display library; also called WT
Take B1: the Fold diff with human C2 G466A came to 3 fold; in the test with human C2 K711A it was 5 fold; with human C2 L706A, 23 fold; with human C2 A717S, 41 fold.
